In the supplement of paper PMC5998384:

What was measured:
HeLa Kyoto [1] = experiment: solubility in G1/S (NP-40 vs SDS abundance) (log2 ratio); higher = more soluble; details: cell cycle stage: G1/S
HeLa Kyoto [2] = experiment: solubility change mitosis vs G1/S (difference of NP-40 vs SDS log2 ratios) (log2 ratio difference); higher = more soluble in mitosis
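Wherever solubility change mitosis vs G1/S (difference of NP-40 vs SDS log2 ratios) is given: synchronized HeLa Kyoto cells (double thymidine block for G1/S, nocodazole release for mitosis), protein amounts in NP-40 versus SDS lysates quantified by mass spectrometry, three biological replicates.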
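Wherever solubility in G1/S (NP-40 vs SDS abundance) is given: HeLa Kyoto cells arrested at G1/S by double thymidine block, proteins quantified by TMT10plex mass spectrometry in mild NP-40 versus SDS extracts, three biological replicates.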

Row | Sequence | solubility in G1/S (log2) (HeLa Kyoto [1]) | solubility change mitosis (log2) (HeLa Kyoto [2])
1 | MSYVFVNDSSQTNVPLLQACIDGDFNYSKRLLESGFDPNIRDSRGRTGLHLAAARGNVDICQLLHKFGADLLATDYQGNTALHLCGHVDTIQFLVSNGLKIDICNHQGATPLVLAKRRGVNKDVIRLLESLEEQEVKGFNRGTHSKLETMQTAESESAMESHSLLNPNLQQGEGVLSSFRTTWQEFVEDLGFWRVLLLIFVIALLSLGIAYYVSGVLPFVENQPELVH [ANKRD46] | 0.237 | 0.136
2 | MTAVNVALIRDTKWLTLEVCREFQRGTCSRADADCKFAHPPRVCHVENGRVVACFDSLKGRCTRENCKYLHPPPHLKTQLEINGRNNLIQQKTAAAMFAQQMQLMLQNAQMSSLGSFPMTPSIPANPPMAFNPYIPHPGMGLVPAELVPNTPVLIPGNPPLAMPGAVGPKLMRSDKLEVCREFQRGNCTRGENDCRYAHPTDASMIEASDNTVTICMDYIKGRCSREKCKYFHPPAHLQARLKAAHHQMNHSAASAMALQPGTLQLIPKRSALEKPNGATPVFNPTVFHCQQALTNLQLPQPAFIPAGPILCMAPASNIVPMMHGATPTTVSAATTPATSVPFAAPTTGNQLKF [MBNL3] | 0.0798 | 0.156
3 | MTEESEETVLYIEHRYVCSECNQLYGSLEEVLMHQNSHVPQQHFELVGVADPGVTVATDTASGTGLYQTLVQESQYQCLECGQLLMSPSQLLEHQELHLKMMAPQEAVPAEPSPKAPPLSSSTIHYECVDCKALFASQELWLNHRQTHLRATPTKAPAPVVLGSPVVLGPPVGQARVAVEHSYRKAEEGGEGATVPSAAATTTEVVTEVELLLYKCSECSQLFQLPADFLEHQATHFPAPVPESQEPALQQEVQASSPAEVPVSQPDPLPASDHSYELRNGEAIGRDRRGRRARRNNSGEAGGAATQELFCSACDQLFLSPHQLQQHLRSHREGVFKCPLCSRVFPSPSSLDQHLGDHSSESHFLCVDCGLAFGTEALLLAHRRAHTPNPLHSCPCGKTFVNLTKFLYHRRTHGVGGVPLPTTPVPPEEPVIGFPEPAPAETGEPEAPEPPVSEETSAGPAAPGTYRCLLCSREFGKALQLTRHQRFVHRLERRHKCSICGKMFKKKSHVRNHLRTHTGERPFPCPDCSKPFNSPANLARHRLTHTGERPYRCGDCGKAFTQSSTLRQHRLVHAQHFPYRCQECGVRFHRPYRLLMHRYHHTGEYPYKCRECPRSFLLRRLLEVHQLVVHAGRQPHRCPSCGAAFPSSLRLREHRCAAAAAQAPRRFECGTCGKKVGSAARLQAHEAAHAAAGPGEVLAKEPPAPRAPRATRAPVASPAALGSTATASPAAPARRRGLECSECKKLFSTETSLQVHRRIHTGERPYPCPDCGKAFRQSTHLKDHRRLHTGERPFACEVCGKAFAISMRLAEHRRIHTGERPYSCPDCGKSYRSFSNLWKHRKTHQQQHQAAVRQQLAEAEAAVGLAVMETAVEALPLVEAIEIYPLAEAEGVQISG [ZNF574] | -0.386 | 0.212
4 | MTSAVVDSGGTILELSSNGVENQEESEKVSEYPAVIVEPVPSARLEQGYAAQVLVYDDETYMMQDVAEEQEVETENVETVEASVHSSNAHCTDKTIEAAEALLHMESPTCLRDSRSPVEVFVPPCVSTPEFIHAAMRPDVITETVVEVSTEESEPMDTSPIPTSPDSHEPMKKKKVGRKPKTQQSPISNGSPELGIKKKPREGKGNTTYLWEFLLDLLQDKNTCPRYIKWTQREKGIFKLVDSKAVSKLWGKHKNKPDMNYETMGRALRYYYQRGILAKVEGQRLVYQFKDMPKNIVVIDDDKSETCNEDLAGTTDEKSLERVSLSAESLLKAASSVRSGKNSSPINCSRAEKGVARVVNITSPGHDASSRSPTTTASVSATAAPRTVRVAMQVPVVMTSLGQKISTVAVQSVNAGAPLITSTSPTTATSPKVVIQTIPTVMPASTENGDKITMQPAKIITIPATQLAQCQLQTKSNLTGSGSINIVGTPLAVRALTPVSIAHGTPVMRLSMPTQQASGQTPPRVISAVIKGPEVKSEAVAKKQEHDVKTLQLVEEKPADGNKTVTHVVVVSAPSAIALPVTMKTEGLVTCEK [ELF2] | 0.284 | 0.0877
5 | MTSPSPRIQIISTDSAVASPQRIQIVTDQQTGQKIQIVTAVDASGSPKQQFILTSPDGAGTGKVILASPETSSAKQLIFTTSDNLVPGRIQIVTDSASVERLLGKTDVQRPQVVEYCVVCGDKASGRHYGAVSCEGCKGFFKRSVRKNLTYSCRSNQDCIINKHHRNRCQFCRLKKCLEMGMKMESVQSERKPFDVQREKPSNCAASTEKIYIRKDLRSPLIATPTFVADKDGARQTGLLDPGMLVNIQQPLIREDGTVLLATDSKAETSQGALGTLANVVTSLANLSESLNNGDTSEIQPEDQSASEITRAFDTLAKALNTTDSSSSPSLADGIDTSGGGSIHVISRDQSTPIIEVEGPLLSDTHVTFKLTMPSPMPEYLNVHYICESASRLLFLSMHWARSIPAFQALGQDCNTSLVRACWNELFTLGLAQCAQVMSLSTILAAIVNHLQNSIQEDKLSGDRIKQVMEHIWKLQEFCNSMAKLDIDGYEYAYLKAIVLFSPDHPGLTSTSQIEKFQEKAQMELQDYVQKTYSEDTYRLARILVRLPALRLMSSNITEELFFTGLIGNVSIDSIIPYILKMETAEYNGQITGASL [NR2C2] | -0.109 | 0.0297
6 | MVAMAAGPSGCLVPAFGLRLLLATVLQAVSAFGAEFSSEACRELGFSSNLLCSSCDLLGQFNLLQLDPDCRGCCQEEAQFETKKLYAGAILEVCGUKLGRFPQVQAFVRSDKPKLFRGLQIKYVRGSDPVLKLLDDNGNIAEELSILKWNTDSVEEFLSEKLERI [SEP15] | 0.305 | -0.028
7 | MVGPGPTAAAAVEERQRKLQEYLAAKGKLKSQNTKPYLKSKNNCQNQPPSKSTIRPKNDVTNHVVLPVKPKRSISIKLQPRPPNTAGSQKPKLEPPKLLGKRLTSECVSSNPYSKPSSKSFQQCEAGSSTTGELSRKPVGSLNIEQLKTTKQQLTDQGNGKCIDFMNNIHVENESLDNFLKETNKENLLDILTEPERKPDPKLYTRSKPKTDSYNQTKNSLVPKQALGKSSVNSAVLKDRVNKQFVGETQSRTFPVKSQQLSRGADLARPGVKPSRTVPSHFIRTLSKVQSSKKPVVKNIKDIKVNRSQYERPNETKIRSYPVTEQRVKHTKPRTYPSLLQGEYNNRHPNIKQDQKSSQVCIPQTSCVLQKSKAISQRPNLTVGRFNSAIPSTPSIRPNGTSGNKHNNNGFQQKAQTLDSKLKKAVPQNHFLNKTAPKTQADVTTVNGTQTNPNIKKKATAEDRRKQLEEWQKSKGKTYKRPPMELKTKRKVIKEMNISFWKSIEKEEEEKKAQLELSSKINNTLTECLNLIEGGVPSNEILNILSSIPEAEKFAKFWICKAKLLASKGTFDVIGLYEEAIKNGATPIQELRKVVLNILQDSNRTTEGITSDSLVAETSITSVEELAKKMESVKSCLSPKEREQVTATPRIAKAEQHNYPGIKLQIGPIPRINGMPEVQDMKFITPVRRSSRIERAVSRYPEMLQEHDLVVASLDELLEVEETKCFIFRRNEALPVTLGFQTPES [CKAP2L] | -1.14 | 0.95
8 | MVPAAGRRPPRVMRLLGWWQVLLWVLGLPVRGVEVAEESGRLWSEEQPAHPLQVGAVYLGEEELLHDPMGQDRAAEEANAVLGLDTQGDHMVMLSVIPGEAEDKVSSEPSGVTCGAGGAEDSRCNVRESLFSLDGAGAHFPDREEEYYTEPEVAESDAAPTEDSNNTESLKSPKVNCEERNITGLENFTLKILNMSQDLMDFLNPNGSDCTLVLFYTPWCRFSASLAPHFNSLPRAFPALHFLALDASQHSSLSTRFGTVAVPNILLFQGAKPMARFNHTDRTLETLKIFIFNQTGIEAKKNVVVTQADQIGPLPSTLIKSVDWLLVFSLFFLISFIMYATIRTESIRWLIPGQEQEHVE [TXNDC15] | 0.719 | -0.0906
9 | MVPPVQVSPLIKLGRYSALFLGVAYGATRYNYLKPRAEEERRIAAEEKKKQDELKRIARELAEDDSILK [ATP5I] | -0.147 | 0.197
10 | MVSDEDELNLLVIVVDANPIWWGKQALKESQFTLSKCIDAVMVLGNSHLFMNRSNKLAVIASHIQESRFLYPGKNGRLGDFFGDPGNPPEFNPSGSKDGKYELLTSANEVIVEEIKDLMTKSDIKGQHTETLLAGSLAKALCYIHRMNKEVKDNQEMKSRILVIKAAEDSALQYMNFMNVIFAAQKQNILIDACVLDSDSGLLQQACDITGGLYLKVPQMPSLLQYLLWVFLPDQDQRSQLILPPPVHVDYRAACFCHRNLIEIGYVCSVCLSIFCNFSPICTTCETAFKISLPPVLKAKKKKLKVSA [GTF2H3] | -0.126 | 0.117
11 | MVVSKMNKDAQMRAAINQKLIETGERERLKELLRAKLIECGWKDQLKAHCKEVIKEKGLEHVTVDDLVAEITPKGRALVPDSVKKELLQRIRTFLAQHASL [ENY2] | -0.203 | 0.636
12 | MWMTPKRSKMEVDEALVFRPEWTQRYLVVEPPEGDGALCLVCRRLIVATRERDVRRHYEAEHEYYERYVADGERAALVERLRQGDLPVASFTPEERAARAGLGLCRLLALKGRGWGEGDFVYQCMEVLLREVLPEHVSVLQGVDLSPDITRQRILSIDRNLRNQLFNRARDFKAYSLALDDQAFVAYENYLLVFIRGVGPELEVQEDLLTIINLTHHFSVGALMSAILESLQTAGLSLQRMVGLTTTHTLRMIGENSGLVSYMREKAVSPNCWNVIHYSGFLHLELLSSYDVDVNQIINTISEWIVLIKTRGVRRPEFQTLLTESESEHGERVNGRCLNNWLRRGKTLKLIFSLRKEMEAFLVSVGATTVHFSDKQWLCDFGFLVDIMEHLRELSEELRVSKVFAAAAFDHICTFEVKLNLFQRHIEEKNLTDFPALREVVDELKQQNKEDEKIFDPDRYQMVICRLQKEFERHFKDLRFIKKDLELFSNPFNFKPEYAPISVRVELTKLQANTNLWNEYRIKDLGQFYAGLSAESYPIIKGVACKVASLFDSNQICEKAFSYLTRNQHTLSQPLTDEHLQALFRVATTEMEPGWDDLVRERNESNP [EPM2AIP1] | -0.485 | 0.291
